The numbers were not newly measured in paper PMC3470569, which cites them from elsewhere.

In this data set the target is V-ATPase subunit a proximal lobe of N-terminal domain (Saccharomyces cerevisiae) (UniProt P32563).
V-ATPase subunit a proximal lobe of N-terminal domain (Saccharomyces cerevisiae), sequence (P32563 104-372): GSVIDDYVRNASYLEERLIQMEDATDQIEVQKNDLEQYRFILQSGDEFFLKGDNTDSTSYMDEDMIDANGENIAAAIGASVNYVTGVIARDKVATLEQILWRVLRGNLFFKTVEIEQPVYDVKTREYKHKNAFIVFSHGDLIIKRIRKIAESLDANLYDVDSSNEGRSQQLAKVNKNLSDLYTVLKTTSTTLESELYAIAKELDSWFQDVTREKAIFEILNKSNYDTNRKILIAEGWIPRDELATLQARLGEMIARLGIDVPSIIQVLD

V-ATPase subunit C Cfoot, sequence (P31412 158-277): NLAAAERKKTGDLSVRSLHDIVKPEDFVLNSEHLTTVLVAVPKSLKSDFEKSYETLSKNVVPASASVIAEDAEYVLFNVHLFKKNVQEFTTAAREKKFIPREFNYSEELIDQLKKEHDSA

With “V-ATPase subunit C Cfoot (from UniProt P31412)”, the Kd is 30 µM.

By Kd is commonly meant the free concentration of one partner at which half of the binding sites on the other are occupied at equilibrium, for simple one-to-one binding.
